According to article PMC7504044 (International Journal of Molecular Sciences, 2020):

B1: GST–emerin (full-length emerin fused to GST) (natural protein, UniProt P50402 1-254, looked up)
chain: MDNYADLSDTELTTLLRRYNIPHGPVVGSTRRLYEKKIFEYETQRRRLSPPSSSAASSYSFSDLNSTRGDADMYDLPKKEDALLYQSKGYNDDYYEESYFTTRTYGEPESAGPSRAVRQSVTSFPDADAFHHQVHDDDLLSSSEEECKDRERPMYGRDSAYQSITHYRPVSASRSSLDLSYYPTSSSTSFMSSSSSSSSWLTRRAIRPENRAPGAGLGQDRQVPLWGQLLLFLVFVIVLFFIYHFMQAEEGNPF
notes: emerin, full-length; also called pGST–emerin; source: E. coli BL21, purified (glutathione-Sepharose)

Columns and labels:
[1] = biological target: emerin (Caenorhabditis elegans) (UniProt O01971); conditions: cited from earlier work
SPR = biological target: the molecule itself; experiment: SPR
[2] = biological target: the molecule itself; experiment: SPR; GST–emerin coupled by EDC–NHS to polyethylene glycol/carboxyl sensor slides (Reichert SR7500DC); five increasing concentrations of analyte in PBST at 40 µL/min, 150 s association, 150 s dissociation, no regeneration

Molecule	Kd [1] [nM]	koff (SPR) [s⁻¹]	Kd [2] [nM]
emerin (from UniProt O01971)	14		
B1		0.00154	1.87
